From paper PMC10397247

Experiments:
4H1650-AA = molecular target: T1, 4H1650-AA; test: two-hybrid library CCmax;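 further: natural log of median RNA to DNA barcode read ratio; higher means stronger binding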
T1 chain: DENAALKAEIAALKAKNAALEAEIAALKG

4H175-AA = molecular target: T2, 4H175-AA; test: two-hybrid library CCmax; conditions: mean of both orientations;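 further: natural log of median RNA to DNA barcode read ratio; higher means stronger binding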
T2 chain: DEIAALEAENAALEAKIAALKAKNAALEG

4H1765-AA = molecular target: T3, 4H1765-AA; test: two-hybrid library CCmax; conditions: mean of both orientations;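 further: natural log of median RNA to DNA barcode read ratio; higher means stronger binding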
T3 chain: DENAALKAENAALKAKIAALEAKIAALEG

4H1821-AA = molecular target: T4, 4H1821-AA; test: two-hybrid library CCmax;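 further: natural log of median RNA to DNA barcode read ratio; higher means stronger binding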
T4 chain: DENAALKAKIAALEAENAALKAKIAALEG

4H1828-AA = molecular target: T5, 4H1828-AA; test: two-hybrid library CCmax; conditions: mean of both orientations
T5 chain: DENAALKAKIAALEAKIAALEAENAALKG

4H1930-AA = molecular target: T6, 4H1930-AA; test: two-hybrid library CCmax; conditions: mean of both orientations
T6 chain: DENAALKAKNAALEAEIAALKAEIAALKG

4H2124-AA = molecular target: T7, 4H2124-AA; test: two-hybrid library CCmax; conditions: mean of both orientations
T7 chain: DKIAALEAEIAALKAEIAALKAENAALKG

4H2165-AA = molecular target: T8, 4H2165-AA; test: two-hybrid library CCmax; conditions: mean of both orientations
T8 chain: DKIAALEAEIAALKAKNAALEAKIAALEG

4H2253-AA = molecular target: T9, 4H2253-AA; test: two-hybrid library CCmax; conditions: mean of both orientations
T9 chain: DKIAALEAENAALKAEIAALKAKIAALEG

4H2330-AA = molecular target: T10, 4H2330-AA; test: two-hybrid library CCmax; conditions: mean of both orientations
T10 chain: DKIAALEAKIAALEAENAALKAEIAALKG

4H2343-AA = molecular target: T11, 4H2343-AA; test: two-hybrid library CCmax; conditions: mean of both orientations
T11 chain: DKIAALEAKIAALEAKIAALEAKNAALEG

4H2466-AA = molecular target: T12, 4H2466-AA; test: two-hybrid library CCmax; conditions: mean of both orientations
T12 chain: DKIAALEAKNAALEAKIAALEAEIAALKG

4H249-AA = molecular target: T13, 4H249-AA; test: two-hybrid library CCmax; conditions: mean of both orientations
T13 chain: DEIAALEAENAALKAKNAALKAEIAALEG

4H2592-AA = molecular target: T14, 4H2592-AA; test: two-hybrid library CCmax; conditions: mean of both orientations
T14 chain: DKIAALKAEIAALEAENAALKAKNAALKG

4H2732-AA = molecular target: T15, 4H2732-AA; test: two-hybrid library CCmax; conditions: mean of both orientations
T15 chain: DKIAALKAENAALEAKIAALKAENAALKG

4H2774-AA = molecular target: T16, 4H2774-AA; test: two-hybrid library CCmax; conditions: mean of both orientations
T16 chain: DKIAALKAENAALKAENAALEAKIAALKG

4H2931-AA = molecular target: T17, 4H2931-AA; test: two-hybrid library CCmax; conditions: mean of both orientations
T17 chain: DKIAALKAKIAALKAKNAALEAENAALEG

4H3001-AA = molecular target: T18, 4H3001-AA; test: two-hybrid library CCmax; conditions: mean of both orientations
T18 chain: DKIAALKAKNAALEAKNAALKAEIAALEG

4H3015-AA = molecular target: T19, 4H3015-AA; test: two-hybrid library CCmax; conditions: mean of both orientations
T19 chain: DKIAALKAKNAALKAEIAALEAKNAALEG

4H3073-AA = molecular target: T20, 4H3073-AA; test: two-hybrid library CCmax; conditions: mean of both orientations
T20 chain: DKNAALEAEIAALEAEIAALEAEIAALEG

4H3438-AA = molecular target: T21, 4H3438-AA; test: two-hybrid library CCmax
T21 chain: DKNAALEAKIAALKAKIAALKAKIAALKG

4H347-AA = molecular target: T22, 4H347-AA; test: two-hybrid library CCmax; conditions: mean of both orientations
T22 chain: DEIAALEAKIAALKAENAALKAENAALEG

4H406-AA = molecular target: T23, 4H406-AA; test: two-hybrid library CCmax; conditions: mean of both orientations
T23 chain: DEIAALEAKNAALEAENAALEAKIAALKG

4H452-AA = molecular target: T24, 4H452-AA; test: two-hybrid library CCmax; conditions: mean of both orientations
T24 chain: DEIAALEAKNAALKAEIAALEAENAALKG

4H56-AA = molecular target: T25, 4H56-AA; test: two-hybrid library CCmax; conditions: mean of both orientations
T25 chain: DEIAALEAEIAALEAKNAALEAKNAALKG

4H_APH = molecular target: T26, 4H_APH; test: two-hybrid library CCmax; conditions: mean of both orientations
T26 chain: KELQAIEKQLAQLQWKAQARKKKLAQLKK

4H_BCR = molecular target: T27, 4H_BCR; test: two-hybrid library CCmax; conditions: mean of both orientations
T27 chain: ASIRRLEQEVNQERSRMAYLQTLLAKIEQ

4H_GCN4 = test: two-hybrid library CCmax
GCN2_T = test: two-hybrid library CCmax
P11A-bS = molecular target: T28, P11A-bS; test: two-hybrid library CCNG1
T28 chain: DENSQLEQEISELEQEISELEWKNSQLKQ

P12A-bS = molecular target: T29, P12A-bS; test: two-hybrid library CCNG1
T29 chain: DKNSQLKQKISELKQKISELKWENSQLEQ

P1A-bS = molecular target: T30, P1A-bS; test: two-hybrid library CCNG1
T30 chain: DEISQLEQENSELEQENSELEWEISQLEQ

P2A-bS = molecular target: T31, P2A-bS; test: two-hybrid library CCNG1
T31 chain: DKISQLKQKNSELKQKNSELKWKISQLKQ

P3A-bS = molecular target: T32, P3A-bS; test: two-hybrid library CCNG1
T32 chain: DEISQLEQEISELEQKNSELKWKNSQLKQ

P4A-bS = molecular target: T33, P4A-bS; test: two-hybrid library CCNG1
T33 chain: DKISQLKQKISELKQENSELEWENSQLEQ

P5A-bS = molecular target: T34, P5A-bS; test: two-hybrid library CCNG1
T34 chain: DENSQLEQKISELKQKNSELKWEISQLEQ

P6A-bS = molecular target: T35, P6A-bS; test: two-hybrid library CCNG1
T35 chain: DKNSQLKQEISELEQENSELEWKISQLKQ

P7A-bS = molecular target: T36, P7A-bS; test: two-hybrid library CCNG1
T36 chain: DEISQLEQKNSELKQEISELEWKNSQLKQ

P8A-bS = molecular target: T37, P8A-bS; test: two-hybrid library CCNG1
T37 chain: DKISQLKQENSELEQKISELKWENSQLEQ

P9A-bS = molecular target: T38, P9A-bS; test: two-hybrid library CCNG1
T38 chain: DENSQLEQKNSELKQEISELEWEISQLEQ

4H1359-bN = molecular target: T39, 4H1359-bN; test: two-hybrid library CCNG1
T39 chain: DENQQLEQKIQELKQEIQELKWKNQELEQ

4H1393-bN = molecular target: T40, 4H1393-bN; test: two-hybrid library CCNG1
T40 chain: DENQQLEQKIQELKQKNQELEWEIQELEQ

4H1449-bN = molecular target: T41, 4H1449-bN; test: two-hybrid library CCNG1
T41 chain: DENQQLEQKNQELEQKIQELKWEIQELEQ

4H1629-bN = molecular target: T42, 4H1629-bN; test: two-hybrid library CCNG1
T42 chain: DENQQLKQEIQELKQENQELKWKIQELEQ

4H1710-bN = molecular target: T43, 4H1710-bN; test: two-hybrid library CCNG1
T43 chain: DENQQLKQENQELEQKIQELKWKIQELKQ

4H1804-bN = molecular target: T44, 4H1804-bN; test: two-hybrid library CCNG1
T44 chain: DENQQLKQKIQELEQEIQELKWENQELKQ

4H1985-bN = molecular target: T45, 4H1985-bN; test: two-hybrid library CCNG1
T45 chain: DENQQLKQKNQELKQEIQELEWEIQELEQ

4H3129-bN = molecular target: T46, 4H3129-bN; test: two-hybrid library CCNG1
T46 chain: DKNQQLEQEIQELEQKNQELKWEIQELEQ

4H3172-bN = molecular target: T47, 4H3172-bN; test: two-hybrid library CCNG1
T47 chain: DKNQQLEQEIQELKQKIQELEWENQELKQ

4H3414-bN = molecular target: T48, 4H3414-bN; test: two-hybrid library CCNG1
T48 chain: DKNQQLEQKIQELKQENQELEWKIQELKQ

4H3631-bN = molecular target: T49, 4H3631-bN; test: two-hybrid library CCNG1
T49 chain: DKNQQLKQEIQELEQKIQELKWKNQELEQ

4H3638-bN = molecular target: T50, 4H3638-bN; test: two-hybrid library CCNG1
T50 chain: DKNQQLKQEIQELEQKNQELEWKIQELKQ

4H3817-bN = molecular target: T51, 4H3817-bN; test: two-hybrid library CCNG1
T51 chain: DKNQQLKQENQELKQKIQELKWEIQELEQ

4H3974-bN = molecular target: T52, 4H3974-bN; test: two-hybrid library CCNG1
T52 chain: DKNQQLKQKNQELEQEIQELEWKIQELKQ

4H56-bN = molecular target: T53, 4H56-bN; test: two-hybrid library CCNG1
T53 chain: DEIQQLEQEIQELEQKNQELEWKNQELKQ

4H570-bN = molecular target: T54, 4H570-bN; test: two-hybrid library CCNG1
T54 chain: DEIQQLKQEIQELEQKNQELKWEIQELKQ

4H584-bN = molecular target: T55, 4H584-bN; test: two-hybrid library CCNG1
T55 chain: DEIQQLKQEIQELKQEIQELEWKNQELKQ

4H619-bN = molecular target: T56, 4H619-bN; test: two-hybrid library CCNG1
T56 chain: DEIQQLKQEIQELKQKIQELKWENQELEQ

4H850-bN = molecular target: T57, 4H850-bN; test: two-hybrid library CCNG1
T57 chain: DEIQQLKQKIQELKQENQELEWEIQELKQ

4H906-bN = molecular target: T58, 4H906-bN; test: two-hybrid library CCNG1
T58 chain: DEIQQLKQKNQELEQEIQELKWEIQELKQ

Chain of 4H_GCN4 (chain, as listed by the source): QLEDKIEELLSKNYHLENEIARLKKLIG

B1: 4H1650-AA (peptide)
chain: DENAALKAEIAALKAKNAALEAEIAALKG
- interaction score (4H1650-AA): 1.93
- interaction score (4H175-AA): -1.43
- interaction score (4H1765-AA): -1.53
- interaction score (4H1821-AA): -1.25
- interaction score (4H1828-AA): -1.48
- interaction score (4H1930-AA): -1.42
- interaction score (4H2124-AA): -1.42
- interaction score (4H2165-AA): -1.3
- interaction score (4H2253-AA): -1.47
- interaction score (4H2330-AA): -1.54
- interaction score (4H2343-AA): -1.44
- interaction score (4H2466-AA): -1.67
- interaction score (4H249-AA): -1.71
- interaction score (4H2592-AA): -1.61
- interaction score (4H2732-AA): -0.897
- interaction score (4H2774-AA): -1.48
- interaction score (4H2931-AA): -1.59
- interaction score (4H3001-AA): -1.67
- interaction score (4H3015-AA): -1.53
- interaction score (4H3073-AA): -1.16
- interaction score (4H3438-AA): -1.13
- interaction score (4H347-AA): -2.36
- interaction score (4H406-AA): -1.61
- interaction score (4H452-AA): -1.34
- interaction score (4H56-AA): -1.74
- interaction score (4H_APH): -1.42
- interaction score (4H_BCR): -1.36
- interaction score (4H_GCN4): -1.9
- interaction score (GCN2_T): -0.999

B2: P11A-bS (peptide)
chain: DENSQLEQEISELEQEISELEWKNSQLKQ
- interaction score (P11A-bS): -0.865
- interaction score (P12A-bS): 2.41
- interaction score (P1A-bS): 0.728
- interaction score (P2A-bS): -0.288
- interaction score (P3A-bS): -0.458
- interaction score (P4A-bS): 0.142
- interaction score (P5A-bS): -0.458
- interaction score (P6A-bS): 0.727
- interaction score (P7A-bS): -1.25
- interaction score (P8A-bS): 0.714
- interaction score (P9A-bS): -0.134

B3: 4H1359-bN (peptide)
chain: DENQQLEQKIQELKQEIQELKWKNQELEQ
- interaction score (4H1359-bN): -0.688
- interaction score (4H1393-bN): -0.209
- interaction score (4H1449-bN): -0.317
- interaction score (4H1629-bN): -1.24
- interaction score (4H1710-bN): -0.607
- interaction score (4H1804-bN): 0.796
- interaction score (4H1985-bN): -0.294
- interaction score (4H3129-bN): -0.57
- interaction score (4H3172-bN): 0.294
- interaction score (4H3414-bN): -0.131
- interaction score (4H3631-bN): 0.911
- interaction score (4H3638-bN): -1.64
- interaction score (4H3817-bN): -1.14
- interaction score (4H3974-bN): 1.47
- interaction score (4H56-bN): -1.25
- interaction score (4H570-bN): -0.803
- interaction score (4H584-bN): -0.701
- interaction score (4H619-bN): -1.38
- interaction score (4H850-bN): -0.294
- interaction score (4H906-bN): -1.22
